The labels stand for the following.
B1: Catenin beta-1 (Homo sapiens), P35222 (parent)
chain: MATQADLMELDMAMEPDRKAAVSHWQQQSYLDSGIHSGATTTAPSLSGKGNPEEEDVDTSQVLYEWEQGFSQSFTQEQVADIDGQYAMTRAQRVRAAMFPETLDEGMQIPSTQFDAAHPTNVQRLAEPSQMLKHAVVNLINYQDDAELATRAIPELTKLLNDEDQVVVNKAAVMVHQLSKKEASRHAIMRSPQMVSAIVRTMQNTNDVETARCTAGTLHNLSHHREGLLAIFKSGGIPALVKMLGSPVDSVLFYAITTLHNLLLHQEGAKMAVRLAGGLQKMVALLNKTNVKFLAITTDCLQILAYGNQESKLIILASGGPQALVNIMRTYTYEKLLWTTSRVLKVLSVCSSNKPAIVEAGGMQALGLHLTDPSQRLVQNCLWTLRNLSDAATKQEGMEGLLGTLVQLLGSDDINVVTCAAGILSNLTCNNYKNKMMVCQVGGIEALVRTVLRAGDREDITEPAICALRHLTSRHQEAEMAQNAVRLHYGLPVVVKLLHPPSHWPLIKATVGLIRNLALCPANHAPLREQGAIPRLVQLLVRAHQDTQRRTSMGGTQQQFVEGVRMEEIVEGCTGALHILARDVHNRIVIRGLNTIPLFVQLLYSPIENIQRVAAGVLCELAQDKEAAEAIEAEGATAPLTELLHSRNEGVATYAAAVLFRMSEDKPQDYKKRLSVELTSSLFRTEPMAWNETADLGLDIGAQGEPLGYRQDDPSYRSFHSGGYGQDALGMDPMMEHEMGGHHPGADYPVDGLPDLGHAQDLMDGLPPGDSNQLAWFDTDL

The variants in the assay derive from B1. The settings on record: with ron_mouse Mst1r.
Regarding Y654F;Y670F, the “effect of a mutation on the interaction” value is given as “disrupting interaction”.

Values taken from IntAct's records for PubMed 21423209.
